Measured values published in patent US20100068218A1.

target: HLA-A*0101 (human); experiment: peptide-HLA binding inhibition assay

Binder | IC50 [µM]
YSLNFMGY (modifications not checked) [HBV pol 580 epitope YSLNFMGY] | 0.382
LTFGRETVLEY (modifications not checked) [HBV core 137 epitope …] | 0.08

target: HLA-A*2402 (human); experiment: peptide-HLA binding inhibition assay

Binder | IC50 [µM]
RFSWLSLLVPF (modifications not checked) [HBV env 332 epitope …] | 0.012
LWFHISCLTF (modifications not checked) [HBV core 101 epitope …] | 0.0067
SFCGSPYSW (modifications not checked) [HBV pol 167 epitope …] | 0.146
GYPALMPLY (modifications not checked) [HBV pol 639 epitope …] | 0.28
